Columns and labels:
[1] = target: serum 12, head and neck cancer patient (Table 1) (human); assay: 5 ug MBP competitor preincubated with serum 12, then IP of Ruc-p53
[2] = target: serum 15, head and neck cancer patient (Table 1) (human); assay: 5 ug MBP competitor preincubated with serum 15, then IP of Ruc-p53
[3] = target: serum 33, colon cancer patient (Table 1) (human); assay: 5 ug MBP competitor preincubated with serum 33, then IP of Ruc-p53
[4] = target: serum 34, colon cancer patient (Table 1) (human); assay: 5 ug MBP competitor preincubated with serum 34, then IP of Ruc-p53
[5] = target: serum 22, breast cancer patient (Table 1) (human); assay: 5 ug MBP competitor preincubated with serum 22, then IP of Ruc-Smad4
[6] = target: serum 25, breast cancer patient (Table 1) (human); assay: 5 ug MBP competitor preincubated with serum 25, then IP of Ruc-c-Myc
[7] = target: serum 27, breast cancer patient (Table 1) (human); assay: 5 ug MBP competitor preincubated with serum 27, then IP of Ruc-K-Ras
[8] = target: serum 32, colon cancer patient (Table 1) (human); assay: 5 ug MBP competitor preincubated with serum 32, then IP of Ruc-K-Ras
[9] = target: serum 34, colon cancer patient (Table 1) (human); assay: 5 ug MBP competitor preincubated with serum 34, then IP of Ruc-K-Ras
[10] = target: serum 35, colon cancer patient (Table 1) (human); assay: 5 ug MBP competitor preincubated with serum 35, then IP of Ruc-K-Ras
[11] = target: serum 36, colon cancer patient (Table 1) (human); assay: 5 ug MBP competitor preincubated with serum 36, then IP of Ruc-Smad4
[12] = target: serum 24, breast cancer patient (Table 1) (human); assay: 5 ug MBP competitor preincubated with serum 24, then IP of Ruc-β-catenin-Δ1

- percent competition [1]: 21%
- percent competition [2]: 20%
- percent competition [3]: 7%
- percent competition [4]: 11%
- percent competition [5]: 4%
- percent competition [6]: 0%
- percent competition [7]: 5%
- percent competition [8]: 25%
- percent competition [9]: 4%
- percent competition [10]: 16%
- percent competition [11]: 0%
- percent competition [12]: 23%
B1: MBP fusion containing the SPEC2 cDNA (protein, UniProt Q9NRR3 1-84, looked up, not shown: large carriers)
chain: MSEFWLCFNCCIAEQPQPKRRRRIDRSMIGEPTNFVHTAHVGSGDLFSGMNSVSSIQNQMQSKGGYGGGMPANVQMQLVDTKAG

Reference: US20070259336A1
